From patent US20240390418A1 (MINERVA BIOTECHNOLOGIES, published 2024)

T1: PSMGFR peptide
T1 construct: also called MUC1* peptide
T1 peptide: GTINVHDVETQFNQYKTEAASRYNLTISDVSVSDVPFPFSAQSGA

T2: N+20/C-27 peptide
T2 peptide: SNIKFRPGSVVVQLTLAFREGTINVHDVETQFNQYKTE

T3: N+9/C-9 peptide
T3 peptide: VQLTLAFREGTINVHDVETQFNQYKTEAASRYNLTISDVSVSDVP

T4: N-10 peptide
T4 construct: also called PSMGFR N-10; PSMGFR minus 10 amino acids from the N-terminus
T4 peptide: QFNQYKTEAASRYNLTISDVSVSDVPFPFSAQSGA

T5: N-19 peptide
T5 peptide: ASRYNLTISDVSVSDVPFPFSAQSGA

T6: N-26 peptide
T6 peptide: ISDVSVSDVPFPFSAQSGA

T7: N-30 peptide
T7 peptide: SVSDVPFPFSAQSGA

T8: N-10/C-5 peptide
T8 peptide: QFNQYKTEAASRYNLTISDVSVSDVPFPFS

T9: N-19/C-5 peptide
T9 peptide: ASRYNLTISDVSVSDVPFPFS

T10: MUC1* expressed on HCT-116 cells transfected with MUC1* (extra cellular domain is just the PSMGFR sequence) (Homo sapiens (Human), UniProt P15941 1110-1255)
T10 construct: In Western blot rows the same protein stood denatured in cell lysate; also called HCT-MUC1*; HCT-FLR
T10 sequence: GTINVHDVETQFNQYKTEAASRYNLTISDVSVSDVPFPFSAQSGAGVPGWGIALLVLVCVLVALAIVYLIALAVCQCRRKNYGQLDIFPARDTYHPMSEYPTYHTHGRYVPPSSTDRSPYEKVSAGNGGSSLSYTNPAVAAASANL

T11: NME7AB (Homo sapiens (Human), UniProt Q9Y5B8 92-376)
T11 construct: NME7A in the text appears to be NME7AB; also called NM23-H7; NME7A
T11 sequence: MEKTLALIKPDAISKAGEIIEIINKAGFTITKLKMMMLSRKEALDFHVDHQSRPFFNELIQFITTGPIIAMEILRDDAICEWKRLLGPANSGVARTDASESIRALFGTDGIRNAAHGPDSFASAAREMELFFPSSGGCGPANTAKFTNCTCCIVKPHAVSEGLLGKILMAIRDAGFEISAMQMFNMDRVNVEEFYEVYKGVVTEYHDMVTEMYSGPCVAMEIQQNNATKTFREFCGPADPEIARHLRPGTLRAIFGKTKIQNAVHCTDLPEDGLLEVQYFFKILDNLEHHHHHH

B1: monoclonal antibody 8A9 (antibody, V domains shown)
VH: EVELVESGGGLVQPGGSLRLSCATSGFTFTDHYMSWVRQPPGKALEWLGFIRNKANGYTTEYSASVKGRFTISRDNSQSILYLQMKTLRTEDSATYYCARPSDWDSWFAYWGQGTLVTVSA
VL: DVLMTQTPLSLPVSLGDQASISCRSSQSIVHSNGNTYLDWYLQKPGQSPKLLIYRVSNRFSGVPDRFSGSGSGTDFTLKISRVEAEDLGLYYCFQGSHVPWAFGGGTKLEIK
notes: Raised against the N+9/C-9 peptide; also called N+9/C-9 antibody 8A9
B2: C-10 peptide (peptide)
peptide: GTINVHDVETQFNQYKTEAASRYNLTISDVSVSDV
notes: also called PSMGFR C-10; PSMGFR minus 10 amino acids from the C-terminus
B3: mouse monoclonal antibody MNE6 (antibody, V domains shown)
VH: EVKVVESGGDLVKPGGSLKLSCVVSGFTFSRYGMSWVRQTPGKRLEWVATISGGGTYIYYPDSVKGRFTISRDNAKNTLYLQMSSLKSEDTAMYHCTRDNYGRNYDYGMDYWGQGTSVTVSS
VL: QIVLTQSPAIMSASPGEEVTLTCSATSSVSYIHWFQQRPGTSPKLWIYSTSNLASGVPVRFSGSGYGTSYSLTISRMEAEDAATYYCQQRSSSPFTFGSGTKLEIK
notes: Mouse monoclonal raised against the PSMGFR peptide; also called Min-E6

Experiments:
[1] = biological target: T1, PSMGFR peptide; experiment: ELISA, peptide on plate
[2] = biological target: T2, N+20/C-27 peptide; experiment: ELISA, peptide on plate (FIG. 66)
[3] = biological target: T3, N+9/C-9 peptide; experiment: ELISA, peptide on plate (FIG. 66)
[4] = biological target: T4, N-10 peptide; experiment: ELISA, peptide on plate (FIG. 69)
[5] = biological target: B2; experiment: ELISA, peptide on plate (FIG. 69)
[6] = biological target: T5, N-19 peptide; experiment: ELISA, peptide on plate (FIG. 69)
[7] = biological target: T6, N-26 peptide; experiment: ELISA, peptide on plate (FIG. 69)
[8] = biological target: T7, N-30 peptide; experiment: ELISA, peptide on plate (FIG. 69)
[9] = biological target: T8, N-10/C-5 peptide; experiment: ELISA, peptide on plate (FIG. 69)
[10] = biological target: T9, N-19/C-5 peptide; experiment: ELISA, peptide on plate (FIG. 69)
[11] = biological target: T10, MUC1* expressed on HCT-116 cells …; experiment: denaturing Western blot of cell lysates, linear epitope test (FIG. 74)
Method: Antibodies were tested to determine whether they recognize a linear or a conformational epitope. Only antibodies that recognize a linear epitope work in Western blots when using denaturing gels. […] The antibodies tested for comparison are MNC2 and MNE6, which were known to only recognize a conformational epitope, SDIX which is a polyclonal antibody raised against PSMGFR and VU4H5, which is a commercially available monoclonal antibody that recognizes the tandem repeats of full-length MUC1 (FIG. 71A-71D). […] The SDIX polyclonal antibody recognizes HCT-MUC1* but not full-length MUC1 and VU4H5 only recognizes full-length MUC1. These same antibodies were also tested for their ability to work in Western blots of two breast cancer cell lines 1500, aka Zr-75-1, and T47D cells and show the same binding pattern (FIG. 71E-71H).
Antibodies that were raised against the PSMGFR peptide were tested the same way in Western blots (FIG. 72A-72P). […] Antibodies that were raised against the N+20/C-27 peptide were tested the same way in Western blots (FIG. 73A-73J). […] Antibodies 1E4 and 45C11 may recognize a conformational epitope. Antibodies that were raised against the N+9/C-9 peptide were tested the same way in Western blots (FIG. 74A-74H). […] These antibodies may recognize a conformational epitope.

[12] = biological target: T11, NME7AB; experiment: ELISA, peptide on plate (FIG. 2A)
Method: (§1) FIGS. 2A-2I show results of ELISA assays. MUC1* peptides PSMGFR, PSMGFR minus 10 amino acids from the N-terminus aka N-10, or PSMGFR minus 10 amino acids from the C-terminus, aka C-10 are immobilized on the plate and the following are assayed for binding: NME7-AB (FIG. 2A), MNC2 monoclonal antibody (FIG. 2B), MNE6 monoclonal antibody (FIG. 2C), or dimeric NME1 (FIG. 2D). […] MUC1* peptides PSMGFR minus 10 amino acids from the N-terminus aka N-10, or PSMGFR minus 10 amino acids from the C-terminus, aka C-10, are immobilized on the plate and the following are assayed for binding: MNC3 (FIG. 2E) and MNC8 (FIG. 2F).

[13] = biological target: T12, dimeric NME1 (Homo sapiens (Human), UniProt P15531 1-152, limits assumed); experiment: ELISA, peptide on plate (FIG. 2D)
T12 construct: also called NM23-H1 dimers; dimeric NM23-H1
Method: as §1

[14] = biological target: B2; experiment: peptide ELISA
[15] = biological target: T10, MUC1* expressed on HCT-116 cells …; experiment: flow cytometry (FIG. 4D-4F)
[16] = biological target: T1, PSMGFR peptide; experiment: ELISA, peptide on plate (FIG. 2C)
[17] = biological target: T2, N+20/C-27 peptide; experiment: ELISA, peptide on plate (FIG. 63)
Method: (§2) ELISA assays were performed to determine if, in addition to recognizing their immunizing peptide, they recognized PSMGFR, N-10 or C-10. In addition, they were tested for their ability to bind to N+20/C-27, N+9/C-9. We first did the ELISA assay on our set of reference antibodies, MNC2, MNE6, which we know are cancer-specific plus MNC3, which we know recognizes stem cells and progenitor cells (FIG. 63A-63B). None of the reference antibodies bound to the N+20/C-27 peptide. MNC2 and MNE6 cannot bind to PSMGFR peptides with 27, 10 or 9 C-terminal deletions, however, MNC3 binds to C-10 and to N+9/C-9 peptides.

[18] = biological target: T3, N+9/C-9 peptide; experiment: ELISA, peptide on plate (FIG. 63)
Method: as §2

[19] = biological target: T4, N-10 peptide; experiment: ELISA, peptide on plate (FIG. 2B-2C)

T12 sequence (P15531 whole entry): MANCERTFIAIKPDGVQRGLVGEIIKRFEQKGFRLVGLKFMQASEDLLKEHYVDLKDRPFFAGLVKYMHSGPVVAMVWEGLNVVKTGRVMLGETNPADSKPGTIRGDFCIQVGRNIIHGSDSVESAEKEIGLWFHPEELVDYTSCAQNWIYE

B1
binding result [1]: no binding
binding result [2]: no binding
binding result [3]: binds
binding result [4]: no binding
binding result [5]: no binding
binding result [6]: no binding
binding result [7]: no binding
binding result [8]: no binding
binding result [9]: no binding
binding result [10]: no binding
binding result [11]: no binding

B2
binding result [12]: no binding
binding result [13]: no binding

B3
binding result [14]: no binding
binding result [15]: binds
binding result [16]: binds
binding result [17]: no binding
binding result [18]: no binding (tested: 10 ug/mL or 1 ug/mL)
binding result [19]: binds
